B1: CR6261 Y98A scFv (scFv, V domains shown)
VH: EVQLVESGAEVKKPGSSVKVSCKASGGPFRSYAISWVRQAPGQGPEWMGGIIPIFGTTKYAPKFQGRVTITADDFAGTVYMELSSLRSEDTAMYYCAKHMGAQVRETMDVWGKGTTVTVSS
VL: QSVLTQPPSVSAAPGQKVTISCSGSSSNIGNDYVSWYQQLPGTAPKLLIYDNNKRPSGIPDRFSGSKSGTSATLGITGLQTGDEANYYCATWDRRPTAYVVFGGGTKLTVL
B2: CR6261 F54A scFv (scFv, V domains shown)
VH: B1 VH with F55A, A102Y
VL: B1 VL
B3: CR6261 scFv (wild type) (scFv, V domains shown)
VH: B1 VH with A102Y
VL: B1 VL
B4: F10 scFv (wild type) (scFv, V domains shown)
VH: QVQLVQSGAEVKKPGSSVKVSCTSSEVTFSSFAISWVRQAPGQGLEWLGGISPMFGTPNYAQKFQGRVTITADQSTRTAYMDLRSLRSEDTAVYYCARSPSYICSGGTCVFDHWGQGTLVTVSS
VL: QPGLTQPPSVSKGLRQTATLTCTGNSNNVGNQGAAWLQQHQGHPPKLLSYRNNDRPSGISERFSASRSGNTASLTITGLQPEDEADYYCSTWDSSLSAVVFGGGTKLTVL
B5: F10 Y98A scFv (scFv, V domains shown)
VH: B4 VH with Y102A
VL: B4 VL
B6: A66 germline CDR-H2 variant (IIPIFGTA) scFv (scFv, V domains shown)
VH: QVQLVQSGAEVKKPGSSVKVSCKASGGPFSMTAFTWLRQAPGQGLEWMGGIIPIFGTAKYAQKFQGRVTITADESTNTANMELTSLKSEDTAVYYCARTLSSYQPNNDAFAIWGQGTMVTVSS
VL: EIVLTQSPATLSLSPGERATLSCRASQSVSSYLAWYQQKPGQAPRLLIYDASNRATGIPARFSGSGSGTDFTLTISRLEPEDFAVYFCQQYGSSPQFGQGTRLEIK
B7: A66 CDR-H2 variant ISPIFGTA (germline CDR-H2 with Ser52 restored) scFv (scFv, V domains shown)
VH: B6 VH with I52S
VL: B6 VL
B8: A66 CDR-H2 variant IIPIFRTA (germline CDR-H2 with Arg55 restored) scFv (scFv, V domains shown)
VH: B6 VH with G56R
VL: B6 VL
B9: A66 scFv (wild type) (scFv, V domains shown)
VH: B6 VH with I52S, G56R, A58P
VL: B6 VL
B10: F10 CDR-H2 variant ISPIFGTA (germline CDR-H2 with Ser52 restored) scFv (scFv, V domains shown)
VH: B4 VH with M54I, P58A
VL: B4 VL
B11: F10 CDR-H2 variant IIPMFGTA (germline CDR-H2 with Met53 restored) scFv (scFv, V domains shown)
VH: B4 VH with S52I, P58A
VL: B4 VL

Positions count from the first letter of the chain named. Names and notes keep the numbering of the source.

One assay has as its target T1, H5VN04 trimeric HA (recombinant hemagglutinin) (influenza A virus (H5VN04), UniProt Q6DQ33). The experiment in a line: SPR.
Broadly, the koff is a measure of how fast the partners let go of each other. On to B1, for which the koff was found to be 0.027 s⁻¹.
On the same count and under the same terms, as for B2, the figure is 0.0073 s⁻¹; as for B3, 0.00012 s⁻¹.
As for B4, the koff is 3.5e-05 s⁻¹.
The same measure, in the same setting: as for B5, the figure is 0.097 s⁻¹.

Another assay deals with T1, H5VN04 trimeric HA (recombinant …). The assay can be described thus: SPR. The source holds these as a separate data set. In general terms: SPR reads the build-up and loss of mass on a sensor chip optically.
In general, Kd refers to the equilibrium constant for the complex coming apart. As to B1, the Kd was found to be 1600 nM.
On to B2, for which the Kd amounted to 290 nM.
On the same count and under the same terms, the same measure for B3: 0.34 nM; for B4: 0.1 nM; for B5: 350 nM.

For a further assay the target is unchanged. The assay can be described thus: SPR. The source holds these as a separate data set.
B6: the off-rate constant (koff) worked out at 0.0049 s⁻¹.
For the molecule B7, the koff was 0.00023 s⁻¹.
On the same count and under the same terms, as for B8, the figure is 0.0034 s⁻¹; as for B9, 5e-05 s⁻¹; as for B10, 0.00025 s⁻¹.

The next assay has the same target. The assay can be described thus: SPR. The source holds these as a separate data set.
Turning to B6, the Kd was found to be 4.2 nM.
The same measure, in the same setting: as for B7, the figure is 1.1 nM.
Turning to B8, the dissociation constant (Kd) is 3.2 nM.
In the case of B9, the Kd worked out at 0.11 nM.
Take B10: the Kd came out at 1.2 nM.
On the same count and under the same terms, the same measure for B11: 270 nM.

For the origin of these results see paper PMC4006906 (2014).
